For this assay, the target named is CD24(27-56aa)-GST NEOX-4 (human). Put plainly: ELISA. In general terms: ELISA stands for enzyme-linked immunosorbent assay.
Sequence of CD24(27-56aa)-GST NEOX-4 (human) (chain, as listed by the source): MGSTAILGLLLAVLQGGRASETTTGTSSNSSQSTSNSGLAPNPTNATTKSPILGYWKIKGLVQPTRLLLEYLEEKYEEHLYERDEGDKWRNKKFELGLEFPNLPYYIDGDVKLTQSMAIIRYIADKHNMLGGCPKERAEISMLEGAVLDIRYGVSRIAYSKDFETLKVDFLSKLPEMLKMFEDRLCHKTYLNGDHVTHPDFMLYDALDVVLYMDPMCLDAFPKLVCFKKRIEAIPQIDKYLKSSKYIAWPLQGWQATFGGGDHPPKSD

B1: huG14-223 (antibody, V domains shown)
VH: EVQLVESGGGLVKPGGSLRLSCAASGLTFSNYWMNWVRQAPGKGLEWVALIRLYSDNYAIHYAESVKGRFTISRDDSKSTVYLQMNSLKTEDTAVYYCTTGTDNWGQGTTVTVSS
VL: DVVMTQSPLSLPVTPGRPASISCKSSHSLLYSNGKTYLNWLLQKPGQSPQRLIYLVSKLDSGVPDRFSGSGSGTDFTLKISRVEAEDLGVYYCIQGTYFPYTFGQGTKLEIK
The EC50 is the concentration needed to bring the measured effect to its halfway point. Read a high EC50 as lower potency in that assay. B1 yielded a 50% effective concentration (EC50) of 4.82 ng/mL.

B2: huG14-226 (antibody, V domains shown)
VH: EVQLVESGGGLVKPGGSLRLSCAASGLTFSNYWGNWVRQAPGKGLEWVALIRLYSDNYAIHYAESVKGRFTISRDDSKSTVYLQMNSLKTEDTAVYYCTTGTDNWGQGTTVTVSS
VL: DVVMTQSPLSLPVTPGRPASISCKSSHSLLYSNGKTYLNWLLQKPGQSPQRLIYLVSKLDSGVPDRFSGSGSGTDFTLKISRVEAEDLGVYYCVQGTYFPYTFGQGTKLEIK
Consider B2, for which the EC50 is 10.7 ng/mL.

B3: huG14-214 (antibody, V domains shown)
VH: EVQLVESGGGLVKPGGSLRLSCAASGLTFSNYWGNWVRQAPGKGLEWVALIRLYSDNYAIHYAESVKGRFTISRDDSKSTVYLQMNSLKTEDTAVYYCTTGTDYWGQGTTVTVSS
VL: DVVMTQSPLSLPVTPGRPASISCKSSQSLLYSNGKTYLNWLLQKPGQSPQRLIYLVSKLDSGVPDRFSGSGSGTDFTLKISRVEAEDLGVYYCIQGTYFPYTFGQGTKLEIK
B3 showed an EC50 of 3.06 ng/mL.

B4: huG14-222 (antibody, V domains shown)
VH: EVQLVESGGGLVKPGGSLRLSCAASGLTFSNYWMNWVRQAPGKGLEWVALIRLYSDNYAIHYAESVKGRFTISRDDSKSTVYLQMNSLKTEDTAVYYCTTGTDNWGQGTTVTVSS
VL: DVVMTQSPLSLPVTPGRPASISCKSSQSLLYSNGRTYLNWLLQKPGQSPQRLIYLVSKLDSGVPDRFSGSGSGTDFTLKISRVEAEDLGVYYCIQGTYFPYTFGQGTKLEIK
B4 displayed a concentration for a half-maximal effect (EC50) of 4.91 ng/mL. Compared with the last molecule, the EC50 is about 1.6-fold higher.

B5: huG14-206 (antibody, V domains shown)
VH: EVQLVESGGGLVKPGGSLRLSCAASGLTFSNYWMNWVRQAPGKGLEWVALIRLYSDNYAIHYAESVKGRFTISRDDSKSTVYLQMNSLKTEDTAVYYCTTGTDYWGQGTTVTVSS
VL: DVVMTQSPLSLPVTPGRPASISCKSSHSLLYSNGRTYLNWLLQKPGQSPQRLIYLVSKLDSGVPDRFSGSGSGTDFTLKISRVEAEDLGVYYCVQGTYFPYTFGQGTKLEIK
B5 registered an EC50 of 4.92 ng/mL. This EC50 and that of the molecule before are within 1.5-fold of each other.

B6: huG14-220 (antibody, V domains shown)
VH: EVQLVESGGGLVKPGGSLRLSCAASGLTFSNYWMNWVRQAPGKGLEWVALIRLYSDNYAIHYAESVKGRFTISRDDSKSTVYLQMNSLKTEDTAVYYCTTGTDNWGQGTTVTVSS
VL: DVVMTQSPLSLPVTPGRPASISCKSSHSLLYSNGRTYLNWLLQKPGQSPQRLIYLVSKLDSGVPDRFSGSGSGTDFTLKISRVEAEDLGVYYCVQGTYFPYTFGQGTKLEIK
With B6, the EC50 was 5.17 ng/mL.

B7: huG14-207 (antibody, V domains shown)
VH: EVQLVESGGGLVKPGGSLRLSCAASGLTFSNYWMNWVRQAPGKGLEWVALIRLYSDNYAIHYAESVKGRFTISRDDSKSTVYLQMNSLKTEDTAVYYCTTGTDYWGQGTTVTVSS
VL: DVVMTQSPLSLPVTPGRPASISCKSSQSLLYSNGKTYLNWLLQKPGQSPQRLIYLVSKLDSGVPDRFSGSGSGTDFTLKISRVEAEDLGVYYCIQGTYFPYTFGQGTKLEIK
For B7, the half-maximal effective concentration (EC50) is 5.71 ng/mL. The EC50 values of the last two molecules are within 1.5-fold of each other.

B8: huG14-212 (antibody, V domains shown)
VH: EVQLVESGGGLVKPGGSLRLSCAASGLTFSNYWGNWVRQAPGKGLEWVALIRLYSDNYAIHYAESVKGRFTISRDDSKSTVYLQMNSLKTEDTAVYYCTTGTDYWGQGTTVTVSS
VL: DVVMTQSPLSLPVTPGRPASISCKSSHSLLYSNGKTYLNWLLQKPGQSPQRLIYLVSKLDSGVPDRFSGSGSGTDFTLKISRVEAEDLGVYYCVQGTYFPYTFGQGTKLEIK
The molecule B8 displayed a concentration for a half-maximal effect (EC50) of 3.19 ng/mL.

The values are drawn from US20260347496 (published 2026).
